Reference: paper PMC9207808 (ACS Chemical Biology, 2022)
Where “and” joins values, the source holds several entries; their conditions need not be identical. Equal values may be shown once. Read-outs that look alike come from different tables or passages of the source.

How the values were obtained:
[1] = molecular target: Doc1-122–His6 (DocSTm toxin) (Salmonella typhimurium); assay: SPR; Biacore S200; Doc-His6 captured on a Series S NTA chip (200-400 RU); peptide as analyte, single-cycle kinetics, six concentrations (3-fold dilutions), 30 uL/min; 22 C; 10 mM HEPES, 500 mM NaCl, 50 uM EDTA, 0.005% TWEEN 20, pH 8.0; kinetic 1:1 fit
[2] = molecular target: Doc1-122–His6 (DocSTm toxin) (Salmonella typhimurium); assay: as above; remark: listed apart in the source
[3] = tested on: DocH66Y (E. coli P1 Phage); details: cited from earlier work
From the text: (§1) page 23: Table S5. […] Organism Complex Kd (nM) SPR Kd (nM) ITC Reference S. Typhimurium Doc-Phd1-73 0.061 ± 0.019 - This study S. Typhimurium Doc-Phd52-73 (peptide 1) 0.073 ± 0.018 - This study E. coli P1 Phage Doc-Phd1-73 350 - 5 E. coli P1 Phage DocH66Y-Phd1-73 1300 - 5 E. coli P1 Phage Doc-Phd51-73 - 240 5 E. coli P1 Phage DocH66Y-Phd52-73 - 1 6 S23

[4] = molecular target: Doc1-122–His6 (DocSTm toxin) (Salmonella typhimurium); assay: SPR; Biacore S200; Doc-His6 captured on a Series S NTA chip (200-400 RU); peptide as analyte, single-cycle kinetics, six concentrations (3-fold dilutions), 30 uL/min; 22 C; 10 mM HEPES, 500 mM NaCl, 50 uM EDTA, 0.005% TWEEN 20, pH 8.0; kinetic 1:1 fit; remark: listed apart in the source
[5] = molecular target: Doc1-122–His6 (DocSTm toxin) (Salmonella typhimurium); assay: SPR; Biacore S200; Doc-His6 captured on NTA chip; Phd1-73 protein as analyte, multi-cycle kinetics, eight concentrations 25 nM to 0.390625 nM, association 200 s, dissociation 1500 s; 22 C; 10 mM HEPES, 500 mM NaCl, 50 uM EDTA, 0.005% TWEEN 20, pH 8.0; kinetic 1:1 fit with constant RMAX
[6] = molecular target: FLAG–Phd1-73 (PhdSTm antitoxin, His6 removed by thrombin) (Salmonella typhimurium); assay: SEC; HiLoad 16/600 Superdex 75pg, 4 C, Phd SEC buffer (0.025 M K2HPO4, 0.15 M NaCl, 5% glycerol, pH 8.0); mass from the manufacturer's calibration curves; last purification step
[7] = molecular target: Doc1-122–His6 (DocSTm toxin) (Salmonella typhimurium); assay: SPR; Biacore S200; Doc-His6 captured on NTA chip; Phd1-73 protein as analyte, multi-cycle kinetics, eight concentrations 25 nM to 0.390625 nM, association 200 s, dissociation 1500 s; 22 C; 10 mM HEPES, 500 mM NaCl, 50 uM EDTA, 0.005% TWEEN 20, pH 8.0; kinetic 1:1 fit with constant RMAX; remark: listed apart in the source
[8] = tested on: Doc (E. coli P1 Phage); details: ref 5 (ESI), read-out: Kd (nM) ITC; cited from earlier work
From the text: as §1

[9] = molecular target: Doc1-122–His6 (DocSTm toxin) (Salmonella typhimurium); assay: SPR; Biacore S200; Doc-His6 captured on a Series S NTA chip (200-400 RU); peptide as analyte, single-cycle kinetics, six concentrations (3-fold dilutions), 30 uL/min; 22 C; 10 mM HEPES, 500 mM NaCl, 50 uM EDTA, 0.005% TWEEN 20, pH 8.0; kinetic 1:1 fit; remark: listed apart in the source
[10] = molecular target: T1, Doc toxin of Salmonella enterica serovar Typhimurium (DocSTm) (Salmonella enterica serovar Typhimurium, UniProt A0A1C9CWN5 1-126); assay: differential scanning fluorimetry; DocSTm 5 μM with SYPRO Orange, 25 to 95 °C; 50 μM PhdSTm or peptide 1 (Figure 2a); 20 mM K2HPO4, 50 mM (NH4)2SO4, pH 8.0; shift of the melting temperature of DocSTm; details: both partners purified
[11] = molecular target: T1, Doc toxin of Salmonella enterica …; assay: SPR; DocSTm immobilised on a Series S NTA chip; analytes in multicycle kinetics, kinetic and/or steady-state 1:1 fit (steady-state for peptide 14); 22 °C; 10 mM HEPES, 500 mM NaCl, 50 μM EDTA, 0.005% TWEEN 20, pH 8.0; details: both partners purified

Molecule: peptide 19 (PhdSTm52-73-K73A)
- kon [1]: 1.08e+06 M⁻¹ s⁻¹ and 2.12e+06 M⁻¹ s⁻¹ and 1.28e+06 M⁻¹ s⁻¹
- Kd [2]: 0.087 nM
- koff [2]: 0.000126 s⁻¹
- kon [2]: 1.44e+06 M⁻¹ s⁻¹

Molecule: Phd52-73 (E. coli P1 Phage): Phd residues 52-73 of E. coli P1 phage, literature value (LDAEFASLFDTLDSTNKELVNR; UniProt Q06253 52-73, looked up, fragment)
- Kd ([3]; ref 6 (ESI), read-out: Kd (nM) ITC): 1 nM

Molecule: peptide 12 (PhdSTm52-73-N65A)
- kon [4]: 1.3e+06 1/(M s) (2×) and 1.6e+06 1/(M s) and 1.4e+06 1/(M s)
- Kd [2]: 0.145 nM
- koff [2]: 0.000203 s⁻¹
- kon [2]: 1.4e+06 M⁻¹ s⁻¹

Molecule: FLAG–Phd1-73 (PhdSTm antitoxin, His6 removed by thrombin) (natural protein)
- Kd [5]: 0.0507 nM and 0.0505 nM and 0.0883 nM
- koff [5]: 3.02e-05 s⁻¹ and 2.2e-05 s⁻¹ and 3.42e-05 s⁻¹
- kon [5]: 596000 M⁻¹ s⁻¹ and 436000 M⁻¹ s⁻¹ and 387000 M⁻¹ s⁻¹
- stoichiometry N [6]: 2
- koff [7]: 2.9e-05 s⁻¹
- kon [7]: 473000 M⁻¹ s⁻¹

Molecule: Phd1-73 (E. coli P1 Phage): full-length Phd antitoxin from E. coli P1 phage, literature values
- Kd ([3]; ref 5 (ESI), read-out: Kd (nM) SPR): 1300 nM

Molecule: Phd51-73 (E. coli P1 Phage): Phd residues 51-73 of E. coli P1 phage, literature value (ALDAEFASLFDTLDSTNKELVNR; UniProt Q06253 51-73, looked up, fragment)
- Kd [8]: 240 nM

Molecule: peptide 1 (PhdSTm52-73)
- kon [9]: 1.1e+06 1/(M s) (2×) and 1.6e+06 1/(M s) and 1.3e+06 1/(M s)
- koff [2]: 9.1e-05 s⁻¹
- kon [2]: 1.25e+06 M⁻¹ s⁻¹

B1: Phd antitoxin of Salmonella enterica serovar Typhimurium, full-length (PhdSTm) (natural protein)
chain: MFMRTVNYSEARQNLAEVLESAVTGGPVTITRRGHKSAVIISAEEFERYQTARMDDEFAAIMAVHGNELRELADK
notes: also called PhdSTm 1-73; full-length Phd antitoxin
- ΔTm of DocSTm (DSF) [10]: 31.3 ± 0.9 °C
- half-life of the complex [11]: ~7 h
